Test results reported in patent US20250002876.

Columns and labels:
Test in all cases: cell_activity
[1] = tested on: MLT K350A S8P,C13R,K350A (Myotis lucifugus); conditions: HEK293; integration >=10% GFP
[2] = tested on: MLT K350A/D416A S8P,C13R,K350A,D416A (Myotis lucifugus); conditions: HEK293; integration >=10% GFP
[3] = tested on: ZnF-MLT transposase fusion, covalent linker (Myotis lucifugus); conditions: amplicon-seq
[4] = tested on: ZnF-MLT transposase, non-covalent linker (Myotis lucifugus); conditions: HEK293 landing pad, amplicon-seq

| Substance | activity (% GFP excision) [1] | activity (% GFP excision) [2] | activity (% of reads on target) ([3]; HEK293 landing pad) | activity (% of reads on target) [4] | activity (% of reads on target) ([3]; HEK293 plasmid landing pad, TTAA 15 bp from site) |
| --- | --- | --- | --- | --- | --- |
| TTAACACTTGGATTGCGGGAAACGAGTTAAGTCGGCTCGCGTGAATTGCGCGTACTCCGCGGGAGCCGTCTTAACTCGGTTCATATAGATTTGCGGTGGAGTGCGGGAAACGTGTAAACTCGGGCCGATTGTAACTGCGTATTACCAAATATTTGTT / AATTATTTATGTACTGAATAGATAAAAAAATGTCTGTGATTGAATAAATTTTCATTTTTTACACAAGAAACCGAAAATTTCATTTCAATCGAACCCATACTTCAAAAGATATAGGCATTTTAAACTAACTCTGATTTTGCGCGGGAAACCTAAATAATTGCCCGCGCCATCTTATATTTTGGCGGGAAATTCACCCGACACCGTAGTGTTAA [MLT donor left and right ITRs] | > 20 | > 20 |  |  |  |
| Landing pad, single ZnF site next to TTAA |  |  | 24 | 12 |  |
| CTCCACTGTGGGGTGCCGCAGTGGAGATGACTTGTTTGTTAACGGCACTTTAACAG (double strand) [Landing pad, ZnF sites on both sides of TTAA] |  |  |  | 29 | 42 |
